Reference: paper PMC2716121 (Journal of molecular biology, 2009)
Values belong to the molecule of their own block, whether it stands above or below them.

Legend:
Assay in all cases: AUC
[1] = molecular target: Wild-type PhoB, phosphorylated (Escherichia coli) (UniProt P0AFJ5)
[2] = molecular target: PhoB^F20D, phosphorylated (Escherichia coli) (UniProt P0AFJ5)
[3] = molecular target: Wild-type PhoB, unphosphorylated (Escherichia coli) (UniProt P0AFJ5)
AUC = molecular target: the molecule itself

- Kd [1]: 5.1 µM
Molecule: Wild-type PhoB, phosphorylated (from UniProt P0AFJ5 1-229) (natural protein)

- Kd [2]: 2.8 µM
Molecule: PhoB^F20D, phosphorylated (from UniProt P0AFJ5 1-229) (natural protein)

- Kd [3]: 378 µM
Molecule: Wild-type PhoB, unphosphorylated (from UniProt P0AFJ5 1-229) (natural protein)

B1: PhoB^R91E/E111R, unphosphorylated (natural protein, Escherichia coli, UniProt P0AFJ5 1-229, looked up)
chain: MARRILVVEDEAPIREMVCFVLEQNGFQPVEAEDYDSAVNQLNEPWPDLILLDWMLPGGSGIQFIKHLKRESMTRDIPVVMLTARGEEEDEVRGLETGADDYITKPFSPKRLVARIKAVMRRISPMAVEEVIEMQGLSLDPTSHRVMAGEEPLEMGPTEFKLLHFFMTHPERVYSREQLLNHVWGTNVYVEDRTVDVHIRRLRKALEPGGHDRMVQTVRGTGYRFSTRF
- binding result (AUC): binds

B2: PhoB^R91E/E111R, phosphorylated (natural protein, Escherichia coli, UniProt P0AFJ5 1-229, looked up)
chain: B1 chain
modifications: phosphorylated at D53 (site of phosphorylation) with phosphoramidate; 100% phosphorylated at steady state
- binding result (AUC): binds
